Where a chain is given by its changes, count along the chain named. Like-named read-outs stand apart in the source and are kept apart here. Each block holds one binder with its values, some of them ahead of it.
Experiments:
human plasma kallikrein [1] = molecular target: T1, human plasma kallikrein (human, UniProt P03952 20-390; P03952 391-638); assay: Ki,app, enzyme inhibition of pKal, Fab
T1 construct: two disulfide linked chains; also called pKal; human pKal
T1 sequence (P03952 20-390, chain 1 of 2): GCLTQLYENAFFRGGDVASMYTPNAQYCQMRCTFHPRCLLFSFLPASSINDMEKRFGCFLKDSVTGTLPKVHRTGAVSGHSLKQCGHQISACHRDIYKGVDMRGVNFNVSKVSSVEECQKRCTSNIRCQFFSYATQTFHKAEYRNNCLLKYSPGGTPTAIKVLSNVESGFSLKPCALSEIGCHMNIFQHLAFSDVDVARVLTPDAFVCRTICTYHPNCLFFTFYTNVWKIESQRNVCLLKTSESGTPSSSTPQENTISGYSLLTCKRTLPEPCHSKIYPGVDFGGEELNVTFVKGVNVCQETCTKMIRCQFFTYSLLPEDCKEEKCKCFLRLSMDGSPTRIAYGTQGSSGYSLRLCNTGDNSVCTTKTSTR
T1 sequence (P03952 391-638, chain 2 of 2): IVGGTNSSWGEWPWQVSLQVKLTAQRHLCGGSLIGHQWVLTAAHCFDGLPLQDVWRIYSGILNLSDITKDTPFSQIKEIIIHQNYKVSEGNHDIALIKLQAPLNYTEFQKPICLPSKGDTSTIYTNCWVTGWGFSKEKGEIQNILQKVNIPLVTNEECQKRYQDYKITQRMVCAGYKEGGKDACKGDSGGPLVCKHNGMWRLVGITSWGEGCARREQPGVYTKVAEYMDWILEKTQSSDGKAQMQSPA

human plasma kallikrein [2] = molecular target: T1, human plasma kallikrein; assay: Ki,app, enzyme inhibition of pKal, IgG
mouse plasma kallikrein [3] = molecular target: T2, mouse plasma kallikrein (mouse, UniProt P26262 20-638, limits assumed); assay: apparent Ki (Ki,app), inhibition of rodent pKal enzyme activity
T2 construct: also called mouse pKal
T2 sequence (P26262 20-638 limits assumed): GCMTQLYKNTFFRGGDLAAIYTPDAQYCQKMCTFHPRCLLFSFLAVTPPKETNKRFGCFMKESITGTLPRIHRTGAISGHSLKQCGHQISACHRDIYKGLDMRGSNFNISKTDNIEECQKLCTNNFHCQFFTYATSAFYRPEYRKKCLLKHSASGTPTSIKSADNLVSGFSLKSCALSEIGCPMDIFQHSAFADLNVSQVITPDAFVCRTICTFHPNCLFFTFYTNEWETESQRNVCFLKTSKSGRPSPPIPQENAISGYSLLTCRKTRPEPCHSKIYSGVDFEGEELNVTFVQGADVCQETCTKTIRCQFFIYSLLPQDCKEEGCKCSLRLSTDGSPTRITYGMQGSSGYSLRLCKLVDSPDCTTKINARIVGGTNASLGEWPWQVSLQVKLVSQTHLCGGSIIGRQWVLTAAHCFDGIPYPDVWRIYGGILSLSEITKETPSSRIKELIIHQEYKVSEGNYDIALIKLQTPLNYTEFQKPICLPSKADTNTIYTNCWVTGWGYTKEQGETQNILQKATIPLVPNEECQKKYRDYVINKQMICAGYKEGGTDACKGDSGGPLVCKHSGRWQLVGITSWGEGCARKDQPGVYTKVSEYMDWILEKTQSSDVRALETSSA

rat plasma kallikrein [4] = molecular target: T3, rat plasma kallikrein (rat, UniProt P14272 20-638, limits assumed); assay: as above
T3 construct: also called rat pKal
T3 sequence (P14272 20-638 limits assumed): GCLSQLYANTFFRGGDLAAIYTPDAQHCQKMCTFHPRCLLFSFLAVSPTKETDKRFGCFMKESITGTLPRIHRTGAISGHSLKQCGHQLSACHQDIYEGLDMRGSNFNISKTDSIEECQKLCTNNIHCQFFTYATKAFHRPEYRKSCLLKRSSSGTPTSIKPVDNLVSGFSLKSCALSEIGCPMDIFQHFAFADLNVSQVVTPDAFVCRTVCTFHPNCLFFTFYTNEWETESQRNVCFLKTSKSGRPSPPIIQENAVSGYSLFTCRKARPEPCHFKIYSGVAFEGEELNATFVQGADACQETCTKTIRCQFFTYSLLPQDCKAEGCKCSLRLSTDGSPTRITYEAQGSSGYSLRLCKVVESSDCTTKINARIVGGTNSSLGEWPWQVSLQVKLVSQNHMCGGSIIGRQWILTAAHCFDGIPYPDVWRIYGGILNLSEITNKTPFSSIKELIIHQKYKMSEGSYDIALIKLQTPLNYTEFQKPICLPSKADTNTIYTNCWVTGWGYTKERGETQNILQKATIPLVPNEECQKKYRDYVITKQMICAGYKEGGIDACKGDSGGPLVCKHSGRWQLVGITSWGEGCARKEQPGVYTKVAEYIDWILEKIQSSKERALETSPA

[5] = molecular target: T4, human plasma kallikrein (active form) (human, UniProt P03952 20-390; P03952 391-638); assay: apparent Ki (Ki,app), inhibition of human pKal enzyme activity
T4 construct: also called pKal; human pKal
T4 sequence (P03952 20-390, chain 1 of 2): as the sequence (P03952 20-390, chain 1 of 2) above
T4 sequence (P03952 391-638, chain 2 of 2): as the sequence (P03952 391-638, chain 2 of 2) above
Procedure: (§1) Apparent Inhibition constants (K_{i,app} values) were measured by pre-incubating enzyme and inhibitor solutions prior to initiating the reactions with substrate. Enzyme and inhibitor were pre-incubated for 2 hours at 30° C. in a 96-well plate by adding 10 μL of a 10× enzyme solution and 10 μL of 10× inhibitor solutions to 70 μL of reaction buffer. Reactions were initiated by the addition of 10 μL of a 10× concentrated stock of substrate, and were monitored at 30° C. in a fluorescence plate reader with the excitation and emission wavelengths set at 360 nm/460 nm, respectively. Kinetic data were acquired by the increase in fluorescence, and initial rates for each condition were plotted against the total inhibitor concentration. The data was fit to the following equation for tight binding inhibitors: […]

mouse plasma kallikrein [6] = molecular target: T2, mouse plasma kallikrein; assay: apparent Ki (Ki,app), inhibition of mouse pKal enzyme activity
Procedure: as §1

[7] = molecular target: T4, human plasma kallikrein (active form); assay: apparent Ki (Ki,app), inhibition of human pKal enzyme activity; remark: listed apart in the source
[8] = molecular target: T5, pKal catalytic domain Mutant 2 (human, UniProt P03952 391-638); assay: enzyme inhibition, Ki,app on mutant and wild type pKal catalytic domain
T5 construct: Expressed in Pichia pastoris, purified by IMAC; not shown: His tag fusion
T5 sequence (P03952 other isoform, or with tags, fused parts or gaps mutant limits assumed): as the sequence (P03952 391-638, chain 2 of 2) above, with R161A, Q163A, Y165A, T168A, R170A counted along it

human plasma kallikrein [9] = molecular target: T6, human plasma kallikrein (human, UniProt P03952 20-390; P03952 391-638); assay: apparent inhibition constant (Ki,app) from enzyme inhibition of human pKal; Fab
T6 construct: two disulfide-linked chains; also called pKal; human pKal
T6 sequence (P03952 20-390, chain 1 of 2): as the sequence (P03952 20-390, chain 1 of 2) above
T6 sequence (P03952 391-638, chain 2 of 2): as the sequence (P03952 391-638, chain 2 of 2) above

mouse plasma kallikrein [10] = molecular target: T7, mouse plasma kallikrein (mouse, UniProt P26262 20-638, limits assumed); assay: apparent inhibition constant (Ki,app) from enzyme inhibition of rodent pKal
T7 construct: also called mouse pKal; rodent pKal
T7 sequence (P26262 20-638 limits assumed): as the sequence (P26262 20-638 limits assumed) above

rat plasma kallikrein [11] = molecular target: T8, rat plasma kallikrein (rat, UniProt P14272 20-638, limits assumed); assay: as above
T8 construct: also called rat pKal; rodent pKal
T8 sequence (P14272 20-638 limits assumed): as the sequence (P14272 20-638 limits assumed) above

human plasma kallikrein [12] = molecular target: T6, human plasma kallikrein; assay: apparent inhibition constant (Ki,app) from enzyme inhibition of human pKal; IgG

B1: X63-G06 (Fab, V domains shown)
VH: EVQLLESGGGLVQPGGSLRLSCAASGFTFSHYLMTWVRQAPGKGLEWVSYISPSGGHTIYADSVKGRFTISRDNSKNTLYLQMNSLRAEDTAVYYCARVARGIAARSRTSYFDYWGQGTLVTVSS
VL: DIQMTQSPGTLSLSPGERATLSCRTSQFVNSNYLAWYQQTPGQAPRLLIYGASSRATGIPDRFSGTGYGTDFTLTISRLEPEDYGTYYCQQSSRTPWTFGQGTRVEIK
notes: Non-germlined Fab discovered using ROLIC, same HC but different LC as M160-G12; also called X63-G06 (Fab)
Ki (human plasma kallikrein [1]): 0.4 nM

B2: X81-B01 (antibody, V domains shown)
VH: B1 VH
VL: B1 VL with D1E, Q3V, M4L, T40K, T66S, Y68S, Y84F, G85A, T86V, R104K
notes: also called X81-B01 (IgG)
Ki (human plasma kallikrein [2]): 0.2 nM

B4: M6-D09 (antibody, V domains shown)
VH: EVQLLESGGGLVQPGGSLRLSCAASGFTFSFYYMVWVRQAPGKGLEWVSVIYPSGGITVYADSVKGRFTISRDNSKNTLYLQMNSLRAEDTAVYYCARDKWAVMPPYYYYAMDVWGQGTTVTVSS
VL: DIQMTQSPSSLSASVGDRVTITCRASQSIRNYLNWYQQKPGKAPNLLIYAASTLQSGVPARFSGSGSGTDFTLTISSLQPEDFATYYCQQLSGYPHTFGQGTKLEIK
notes: Group 3 antibody; also called M06-D09; 559A-M06-D09
fold increase of Ki,app against the wild type catalytic domain [8]: ~5 fold

Results, then the binder that gave them:

Ki (mouse plasma kallikrein [3]): 0.011 nM
Ki (rat plasma kallikrein [4]): 0.14 nM
Ki [5]: 0.1 nM
Ki (mouse plasma kallikrein [6]): 0.011 nM
Ki [7]: 0.2 nM
B3: X81-B01 (antibody, V domains shown)
VH: B1 VH
VL: B1 VL with D1E, Q3V, M4L, T40K, T66S, Y68S, Y84F, G85A, T86V, R104K
notes: also called X81-B01 (IgG); 559A-X81-B01

Ki (human plasma kallikrein [9]): 0.6 nM
Ki (mouse plasma kallikrein [10]): ~1 nM
B5: M142-H08 (Fab) (Fab, V domains shown)
VH: EVQLLESGGGLVQPGGSLRLSCAASGFTFSAYSMIWVRQAPGKGLEWVSYIRPSGGRTTYADSVKGRFTISRDNSKNTLYLQMNSLRAEDTAVYYCARGGLLLWFRELKSNYFDYWGQGTLVTVSS
VL: DIQMTQSPSSLSAFVGDRVTITCRASQPIDNYLNWYHQKPGKAPKLLIYAASRLQSGVPSRLSGSGFGTDFTLTISSLQPEDFGNYYCQQSYTVPYTFGGGTKVEIR
notes: Fab; printed HC runs into the start of CH1

Ki (rat plasma kallikrein [11]): 2 nM
Ki (mouse plasma kallikrein [10]): 2 nM
Ki (human plasma kallikrein [12]): 2 nM
B6: M162-A04 (IgG) (antibody, V domains shown)
VH: EVQLLESGGGLVQPGGSLRLSCAASGFTFSHYIMMWVRQAPGKGLEWVSGIYSSGGITVYADSVKGRFTISRDNSKNTLYLQMNSLRAEDTAVYYCAYRRTGIPRRDAFDIWGQGTMVTVSS
VL: DIQMTQSPSTLSASVGDRVTITCRASQSISSWLAWYQQKPGKAPNLLIYKASTLESGVPSRFSGSGSGTEFTLTISSLQPDDFATYYCQQYNTYWTFGQGTKVEIK
notes: Human IgG; also called R84-H05; 559A-M0162-A04
